Results: article PMC9025568, “Identification and Characterization of Two Bibenzyl Glycosyltransferases from the Liverwort Marchantia polymorpha” (Antioxidants, 2022)

Tests used:
Assay in all cases: HPLC glucosylation assay, nonlinear fit (GraphPad Prism)
Type in all cases: biochemical, Marchantia polymorpha
[1] = substrate: Oc1ccc(CCc2cccc(O)c2)cc1; conditions: UDP-glucose as donor; Tris-HCl, optimal pH (7.0), optimal temperature (25-30 °C), 12 min
Text: HPLC glucosylation assay, nonlinear fit (GraphPad Prism) on MpUGT741A1

[2] = substrate: O=C(CCc1ccc(O)cc1)c1c(O)cc(O)cc1O; conditions: UDP-glucose as donor, Tris-HCl, optimal pH (7.0-7.5), 30 °C, 12 min
Text: (§1) HPLC glucosylation assay, nonlinear fit (GraphPad Prism) on MpUGT737B1

[3] = substrate: Oc1ccc(CCc2cc(O)cc(O)c2)cc1; conditions: UDP-glucose as donor, Tris-HCl, optimal pH (7.0-7.5), 30 °C, 12 min
Text: as §1

[4] = substrate: Oc1ccc(CCc2cccc(O)c2)cc1; conditions: UDP-glucose as donor, Tris-HCl, optimal pH (7.0-7.5), 30 °C, 12 min
Text: as §1

| Protein | Km [1] [µM] | Vmax [1] [µmol/min/mg] | kcat [1] [s⁻¹] | kcat/Km [1] [M⁻¹ s⁻¹] | Km [2] [µM] | Vmax [2] [µmol/min/mg] | kcat [2] [s⁻¹] | kcat/Km [2] [M⁻¹ s⁻¹] | Km [3] [µM] | Vmax [3] [µmol/min/mg] | kcat [3] [s⁻¹] | kcat/Km [3] [M⁻¹ s⁻¹] | Km [4] [µM] | Vmax [4] [µmol/min/mg] | kcat [4] [s⁻¹] | kcat/Km [4] [M⁻¹ s⁻¹] |
| --- | --- | --- | --- | --- | --- | --- | --- | --- | --- | --- | --- | --- | --- | --- | --- | --- |
| MpUGT741A1 (Marchantia polymorpha) (protein, full-length ORF (1392 bp, 463 residues) in pET32a(+), N-terminal Trx-S-His tag, E. coli BL21(DE3), purified) MGSHVERPPRALLFPVVASGHWGPFLQLILQLATKKLNFTLLADRGRCDELKAYQAKGAFATLDVEFLEVYTDPSTLSLRKDLVPAMWTNLESFISNGEFDPSRYTCMISDMFLYFCQDLADKWGIPNYFYVTCPTYFGLVLLHGEGIVDGGWIPQNPVKRKQFLDLPGLEMFTGGDMPMALTEMEPDLFHLLPRAIKGSAGLVFNSFEEFEKKPLSDLRDQLKLNAMPGKGPPTVFTIGPLLLLPGIPGALDDTKPVEKSESIAWLDKQQKSSVLFICFGSQRELPEPLITGIASGLEDTGVPFLWALRIPPQSSKIESLPEGFESRTQSRGLVLTSWVPQQEILLHPSVGGFLTHCGWNSILESMLGGVPIAAFPLYAEQRMNQRYMVNAVKTAVAIEGEHGQYEAKEIAAAIMRLLKGKEGVEARQNMQIMKEMAYAAMEEGGSSHKNLQNFLAEVQRVR | 89.2 ± 17.6 | 0.15 | 0.124 ± 0.012 | 1500 | – | – | – | – | – | – | – | – | – | – | – | – |
| MpUGT737B1 (Marchantia polymorpha) (protein, full-length ORF (1443 bp, 480 residues) in pET32a(+), N-terminal Trx-S-His tag, E. coli BL21(DE3), purified) MELTNGTTRRAHVLMVCVPFPGHVAPFTQLLYHLSCHENLKVTVMGHKARNAEMIKLYEKGEFKGLDIHFETIFADPPVYPSDPKFPIRAALCADQMFVEFEPIRRRLVAEKDNVGAPTSIICDMFLWFTKDAADEMGVPWYPFFSTSQWFGYCAYIGDELARRNFHPHHSEEKDQRIDITGLEFAYVHDIPSEVLEFPEFYAKVTDRSFRATGILCNTAYELEGSAGTLMATKALVQRSGKKNLKGEEAQIIPVGPIAQIPGFGVQYSLRDQPYECLKWLNAHTEKSVLYIAFGSLGNIVPEVFHELALGLEAGGVPFLWALKLTPAQKEELLPEGFLERIQSSGMGFIESGWAPQTQILMHPAVGGFLSHCGWNSTLESLCAGVPMITWPLSADQPMNARFLVDVKKVAVTVLSGSADESVVTHDDISKAIKRLFGDEEGKQIAKNSLELKKLLASLVAEGGSTYKALRYFIQDLVMV | – | – | – | – | 50.2 ± 10.6 | 0.07 | 0.062 ± 0.005 | 1240 | 45.6 ± 9.7 | 0.1 | 0.089 ± 0.006 | 1960 | 39.3 ± 7.5 | 0.0373 | 0.033 ± 0.002 | 846 |
